Where “and” joins values, the source holds several entries; their conditions need not be identical. Equal values may be shown once. Read-outs that look alike come from different tables or passages of the source.
T1: human IL-18BP (human, UniProt O95998 31-194)
T1 construct: UniProt printed as 095998; also called hIL-18BP
T1 sequence: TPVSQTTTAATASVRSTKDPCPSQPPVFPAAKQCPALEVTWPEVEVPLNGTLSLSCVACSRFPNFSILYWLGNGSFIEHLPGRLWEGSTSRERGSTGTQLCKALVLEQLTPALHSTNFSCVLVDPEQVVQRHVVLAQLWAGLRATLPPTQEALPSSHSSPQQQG

B1: SA301a HC-Y59R (antibody, name in Kabat numbering, V domains shown)
VH: QVQLQESGPGLVKPSQTLSLTCTVSGYSITSDYNSHWIRQPPGKGLEWIGYIHYSGSTNRNPSLKSRVTISRDTSKNQFSLKLSSVTAADTAVYYCARNYGSIYVNYFDYWGQGTLVTVSS
VL: EIVLTQSPATLSLSPGERATLSCSASSSVSYMYWYQQKPGQAPRPLIYRTSNLASGIPARFSGSGSGTDFTLTISSLEPEDFAVYYCQQYHSYPTFGGGTKVEIK
notes: IgG1 kappa
B2: SA302a HC-T30N (antibody, V domains shown)
VH: QVQLQESGPGLVKPSQTLSLTCTVSGYSINSDYNAHWIRQPPGKGLEWIGYIHYSGSTNYNPSLKSRVTISRDTSKNQFSLKLSSVTAADTAVYYCARNYGSIYVNYFDYWGQGTLVTVSS
VL: EIVLTQSPATLSLSPGERATLSCSASSSVSYMYWYQQKPGQAPRPLIYRTSNLASGIPARFSGSGSGTDFTLTISSLEPEDFAVYYCQQYHSYPTFGGGTKVEIK
B3: SA302a HC-T30S (antibody, V domains shown)
VH: QVQLQESGPGLVKPSQTLSLTCTVSGYSISSDYNAHWIRQPPGKGLEWIGYIHYSGSTNYNPSLKSRVTISRDTSKNQFSLKLSSVTAADTAVYYCARNYGSIYVNYFDYWGQGTLVTVSS
VL: EIVLTQSPATLSLSPGERATLSCSASSSVSYMYWYQQKPGQAPRPLIYRTSNLASGIPARFSGSGSGTDFTLTISSLEPEDFAVYYCQQYHSYPTFGGGTKVEIK
B4: SA302a HC-T30F (antibody, V domains shown)
VH: QVQLQESGPGLVKPSQTLSLTCTVSGYSIFSDYNAHWIRQPPGKGLEWIGYIHYSGSTNYNPSLKSRVTISRDTSKNQFSLKLSSVTAADTAVYYCARNYGSIYVNYFDYWGQGTLVTVSS
VL: EIVLTQSPATLSLSPGERATLSCSASSSVSYMYWYQQKPGQAPRPLIYRTSNLASGIPARFSGSGSGTDFTLTISSLEPEDFAVYYCQQYHSYPTFGGGTKVEIK
B5: SA302a HC-T30Y (antibody, V domains shown)
VH: QVQLQESGPGLVKPSQTLSLTCTVSGYSIYSDYNAHWIRQPPGKGLEWIGYIHYSGSTNYNPSLKSRVTISRDTSKNQFSLKLSSVTAADTAVYYCARNYGSIYVNYFDYWGQGTLVTVSS
VL: EIVLTQSPATLSLSPGERATLSCSASSSVSYMYWYQQKPGQAPRPLIYRTSNLASGIPARFSGSGSGTDFTLTISSLEPEDFAVYYCQQYHSYPTFGGGTKVEIK
B6: SA302a HC-H35V (antibody, V domains shown)
VH: QVQLQESGPGLVKPSQTLSLTCTVSGYSITSDYNAVWIRQPPGKGLEWIGYIHYSGSTNYNPSLKSRVTISRDTSKNQFSLKLSSVTAADTAVYYCARNYGSIYVNYFDYWGQGTLVTVSS
VL: EIVLTQSPATLSLSPGERATLSCSASSSVSYMYWYQQKPGQAPRPLIYRTSNLASGIPARFSGSGSGTDFTLTISSLEPEDFAVYYCQQYHSYPTFGGGTKVEIK
notes: IgG1 kappa
B7: SA302a HC-H35M (antibody, V domains shown)
VH: QVQLQESGPGLVKPSQTLSLTCTVSGYSITSDYNAMWIRQPPGKGLEWIGYIHYSGSTNYNPSLKSRVTISRDTSKNQFSLKLSSVTAADTAVYYCARNYGSIYVNYFDYWGQGTLVTVSS
VL: EIVLTQSPATLSLSPGERATLSCSASSSVSYMYWYQQKPGQAPRPLIYRTSNLASGIPARFSGSGSGTDFTLTISSLEPEDFAVYYCQQYHSYPTFGGGTKVEIK
notes: IgG1 kappa
B8: SA301a HC-Y59S (antibody, name in Kabat numbering, V domains shown)
VH: QVQLQESGPGLVKPSQTLSLTCTVSGYSITSDYNSHWIRQPPGKGLEWIGYIHYSGSTNSNPSLKSRVTISRDTSKNQFSLKLSSVTAADTAVYYCARNYGSIYVNYFDYWGQGTLVTVSS
VL: EIVLTQSPATLSLSPGERATLSCSASSSVSYMYWYQQKPGQAPRPLIYRTSNLASGIPARFSGSGSGTDFTLTISSLEPEDFAVYYCQQYHSYPTFGGGTKVEIK
notes: IgG1 kappa
B9: SA302a HC-D33Y (antibody, V domains shown)
VH: QVQLQESGPGLVKPSQTLSLTCTVSGYSITSYYNAHWIRQPPGKGLEWIGYIHYSGSTNYNPSLKSRVTISRDTSKNQFSLKLSSVTAADTAVYYCARNYGSIYVNYFDYWGQGTLVTVSS
VL: EIVLTQSPATLSLSPGERATLSCSASSSVSYMYWYQQKPGQAPRPLIYRTSNLASGIPARFSGSGSGTDFTLTISSLEPEDFAVYYCQQYHSYPTFGGGTKVEIK
notes: IgG1 kappa
B10: SA302a HC-D33G (antibody, V domains shown)
VH: QVQLQESGPGLVKPSQTLSLTCTVSGYSITSGYNAHWIRQPPGKGLEWIGYIHYSGSTNYNPSLKSRVTISRDTSKNQFSLKLSSVTAADTAVYYCARNYGSIYVNYFDYWGQGTLVTVSS
VL: EIVLTQSPATLSLSPGERATLSCSASSSVSYMYWYQQKPGQAPRPLIYRTSNLASGIPARFSGSGSGTDFTLTISSLEPEDFAVYYCQQYHSYPTFGGGTKVEIK
notes: IgG1 kappa
B11: SA301a HC-Y59V (antibody, name in Kabat numbering, V domains shown)
VH: QVQLQESGPGLVKPSQTLSLTCTVSGYSITSDYNSHWIRQPPGKGLEWIGYIHYSGSTNVNPSLKSRVTISRDTSKNQFSLKLSSVTAADTAVYYCARNYGSIYVNYFDYWGQGTLVTVSS
VL: EIVLTQSPATLSLSPGERATLSCSASSSVSYMYWYQQKPGQAPRPLIYRTSNLASGIPARFSGSGSGTDFTLTISSLEPEDFAVYYCQQYHSYPTFGGGTKVEIK
notes: IgG1 kappa
B12: SA302a HC-H35T (antibody, V domains shown)
VH: QVQLQESGPGLVKPSQTLSLTCTVSGYSITSDYNATWIRQPPGKGLEWIGYIHYSGSTNYNPSLKSRVTISRDTSKNQFSLKLSSVTAADTAVYYCARNYGSIYVNYFDYWGQGTLVTVSS
VL: EIVLTQSPATLSLSPGERATLSCSASSSVSYMYWYQQKPGQAPRPLIYRTSNLASGIPARFSGSGSGTDFTLTISSLEPEDFAVYYCQQYHSYPTFGGGTKVEIK
notes: IgG1 kappa
B13: SA302a HC-H35E (antibody, V domains shown)
VH: QVQLQESGPGLVKPSQTLSLTCTVSGYSITSDYNAEWIRQPPGKGLEWIGYIHYSGSTNYNPSLKSRVTISRDTSKNQFSLKLSSVTAADTAVYYCARNYGSIYVNYFDYWGQGTLVTVSS
VL: EIVLTQSPATLSLSPGERATLSCSASSSVSYMYWYQQKPGQAPRPLIYRTSNLASGIPARFSGSGSGTDFTLTISSLEPEDFAVYYCQQYHSYPTFGGGTKVEIK
notes: IgG1 kappa
B14: SA302a HC-H35A (antibody, V domains shown)
VH: QVQLQESGPGLVKPSQTLSLTCTVSGYSITSDYNAAWIRQPPGKGLEWIGYIHYSGSTNYNPSLKSRVTISRDTSKNQFSLKLSSVTAADTAVYYCARNYGSIYVNYFDYWGQGTLVTVSS
VL: EIVLTQSPATLSLSPGERATLSCSASSSVSYMYWYQQKPGQAPRPLIYRTSNLASGIPARFSGSGSGTDFTLTISSLEPEDFAVYYCQQYHSYPTFGGGTKVEIK
notes: IgG1 kappa
B15: SA301a HC-Y59T (antibody, name in Kabat numbering, V domains shown)
VH: QVQLQESGPGLVKPSQTLSLTCTVSGYSITSDYNSHWIRQPPGKGLEWIGYIHYSGSTNTNPSLKSRVTISRDTSKNQFSLKLSSVTAADTAVYYCARNYGSIYVNYFDYWGQGTLVTVSS
VL: EIVLTQSPATLSLSPGERATLSCSASSSVSYMYWYQQKPGQAPRPLIYRTSNLASGIPARFSGSGSGTDFTLTISSLEPEDFAVYYCQQYHSYPTFGGGTKVEIK
notes: IgG1 kappa
B16: SA302a HC-D33T (antibody, V domains shown)
VH: QVQLQESGPGLVKPSQTLSLTCTVSGYSITSTYNAHWIRQPPGKGLEWIGYIHYSGSTNYNPSLKSRVTISRDTSKNQFSLKLSSVTAADTAVYYCARNYGSIYVNYFDYWGQGTLVTVSS
VL: EIVLTQSPATLSLSPGERATLSCSASSSVSYMYWYQQKPGQAPRPLIYRTSNLASGIPARFSGSGSGTDFTLTISSLEPEDFAVYYCQQYHSYPTFGGGTKVEIK
notes: IgG1 kappa
B17: SA302a HC-D33Q (antibody, V domains shown)
VH: QVQLQESGPGLVKPSQTLSLTCTVSGYSITSQYNAHWIRQPPGKGLEWIGYIHYSGSTNYNPSLKSRVTISRDTSKNQFSLKLSSVTAADTAVYYCARNYGSIYVNYFDYWGQGTLVTVSS
VL: EIVLTQSPATLSLSPGERATLSCSASSSVSYMYWYQQKPGQAPRPLIYRTSNLASGIPARFSGSGSGTDFTLTISSLEPEDFAVYYCQQYHSYPTFGGGTKVEIK
notes: IgG1 kappa
B18: SA302a HC-H35P (antibody, V domains shown)
VH: QVQLQESGPGLVKPSQTLSLTCTVSGYSITSDYNAPWIRQPPGKGLEWIGYIHYSGSTNYNPSLKSRVTISRDTSKNQFSLKLSSVTAADTAVYYCARNYGSIYVNYFDYWGQGTLVTVSS
VL: EIVLTQSPATLSLSPGERATLSCSASSSVSYMYWYQQKPGQAPRPLIYRTSNLASGIPARFSGSGSGTDFTLTISSLEPEDFAVYYCQQYHSYPTFGGGTKVEIK
notes: IgG1 kappa
B19: SA302a HC-D33E (antibody, V domains shown)
VH: QVQLQESGPGLVKPSQTLSLTCTVSGYSITSEYNAHWIRQPPGKGLEWIGYIHYSGSTNYNPSLKSRVTISRDTSKNQFSLKLSSVTAADTAVYYCARNYGSIYVNYFDYWGQGTLVTVSS
VL: EIVLTQSPATLSLSPGERATLSCSASSSVSYMYWYQQKPGQAPRPLIYRTSNLASGIPARFSGSGSGTDFTLTISSLEPEDFAVYYCQQYHSYPTFGGGTKVEIK
notes: IgG1 kappa
B20: SA302a HC-D33V (antibody, V domains shown)
VH: QVQLQESGPGLVKPSQTLSLTCTVSGYSITSVYNAHWIRQPPGKGLEWIGYIHYSGSTNYNPSLKSRVTISRDTSKNQFSLKLSSVTAADTAVYYCARNYGSIYVNYFDYWGQGTLVTVSS
VL: EIVLTQSPATLSLSPGERATLSCSASSSVSYMYWYQQKPGQAPRPLIYRTSNLASGIPARFSGSGSGTDFTLTISSLEPEDFAVYYCQQYHSYPTFGGGTKVEIK
notes: IgG1 kappa
B21: SA302a HC-H35K (antibody, V domains shown)
VH: QVQLQESGPGLVKPSQTLSLTCTVSGYSITSDYNAKWIRQPPGKGLEWIGYIHYSGSTNYNPSLKSRVTISRDTSKNQFSLKLSSVTAADTAVYYCARNYGSIYVNYFDYWGQGTLVTVSS
VL: EIVLTQSPATLSLSPGERATLSCSASSSVSYMYWYQQKPGQAPRPLIYRTSNLASGIPARFSGSGSGTDFTLTISSLEPEDFAVYYCQQYHSYPTFGGGTKVEIK
notes: IgG1 kappa

Tests used:
human IL-18BP [1] = molecular target: T1, human IL-18BP; assay: BLI, apparent KD
human IL-18BP [2] = molecular target: T1, human IL-18BP; assay: BLI, apparent KD; remark: listed apart in the source

| Binder | Kd (human IL-18BP [1]) [nM] | Kd (human IL-18BP [2]) |
| --- | --- | --- |
| B1 | 0.42 |  |
| B2 |  | 1.5 nM |
| B3 |  | 0.66 nM |
| B4 |  | 1.29 nM |
| B5 |  | 1.15 nM |
| B6 |  | 2.42 nM |
| B7 |  | 2.18 nM |
| B8 | 1.57 |  |
| B9 |  | 3.79 nM |
| B10 |  | 3.95 nM |
| B11 | 0.38 |  |
| B12 |  | 2.23 nM |
| B13 |  | 1.57 nM |
| B14 |  | 6.41 nM |
| B15 | 0.14 |  |
| B16 |  | 5.17 nM and 8.95 nM |
| B17 |  | 2.92 nM |
| B18 |  | 0.88 nM |
| B19 |  | 1.76 nM |
| B20 |  | 5.42 nM |
| B21 |  | 0.44 nM |

Source: US20250368745A1 (published 2025)
